HSA data for 39 molecules are collected here from patent US20210145976A1.

First the molecules themselves.
B1: SEQ ID NO 233 (designed binder)
chain: MLPAPKNLVVSRVTEDSARLSWTAPDAAFDSFYIVYAEPIPNGEAIVLTVPGSERSYDLTGLKPGTEYSVLIHGVKGGRNSDPLSAIFTT
B2: SEQ ID NO 254 (designed binder)
chain: MLPAPKNLVVSRVTEDSARLSWTAPDAAFDSFFIPYAEPSPTGEAIVLTVPGSERSYDLTGLKPGTEYSVLIHGVKGGHLSDPLSAISTT
B3: SEQ ID NO 256 (designed binder)
chain: MLPAPKNLVVSRVTEDSARLSWTAPDAAFDSFHIVYHEPRPSGEAIVLTVPGSERSYDLTGLKPGTEYEVGIVGVKGGDLSVPLSAIFTT
B4: SEQ ID NO 258 (designed binder)
chain: MLPAPKNLVVSRVTEDSARLSWTAPDAAFDSFFIPYAEPSPTGEAIVLTVPGSERSYDLTGLKPGTEYDVWIEGVKGGVLSWPLSAIFTT
B5: SEQ ID NO 49 (designed binder)
chain: MLPAPKNLVVSRVTEDSARLSWTAPDAAFDSFGISYLEWWEDGEAIVLTVPGSERSYDLTGLKPGTEYWVSIAGVKGGKRSYPLSAIFTT
B6: SEQ ID NO 264 (designed binder)
chain: MLPAPKNLVVSRVTEDSARLSWTAPDAAFDSFRIKYQEWWVEGEAIVLTVPGSERSYDLTGLKPGTEYVVQIAGVKGGLSSYPLSAIFTT
B7: SEQ ID NO 51 (designed binder)
chain: MLPAPKNLVVSRVTEDSARLSWTAPDAAFDSFFIKYIEWWADGEAIVLTVPGSERSYDLTGLKPGTEYLVEIYGVKGGKWSWPLSAIFTT
B8: SEQ ID NO 240 (designed binder)
chain: MLPAPKNLVVSRVTEDSARLSWTAPDAAFDSFRIKYLEWWLGGEAIVLTVPGSERSYDLTGLKPGTEYWVDIQGVKGGVLSWPLSAIFTT
B9: SEQ ID NO 227 (designed binder)
chain: MLPAPKNLVVSRVTEDSARLSWTAPDAAFDSFRIRYLEWWNIGEAIVLTVPGSERSYDLTGLKPGTEYHVDIWGVKGGYSSYPLSAIFTT
B10: SEQ ID NO 52 (designed binder)
chain: MLPAPKNLVVSRVTEDSARLSWTAPDAAFDSFKISYQEWWEDGEAIVLTVPGSERSYDLTGLKPGTEYWVNISGVKGGVQSYPLSAIFTT
B11: SEQ ID NO 242 (designed binder)
chain: MLPAPKNLVVSRVTEDSARLSWTAPDAAFDSFPIKYLEWWSWGEAIVLTVPGSERSYDLTGLKPGTEYRVPISGVKGGGMSGPLSAIFTT
B12: SEQ ID NO 229 (designed binder)
chain: MLPAPKNLVVSRVTEDSARLSWTAPDAAFDSFSIHYDEDWRRGEAIVLTVPGSERSYDLTGLKPGTEYLVEIPGVKGGKASYPLSAIFTT
B13: SEQ ID NO 224 (designed binder)
chain: MLLAPKNLVVSRVTEDSARLSWTAPDAAFDSFRYLEQGLYGEAIVLTVPGSERSYDLTGLKPGTEYWVEIIGVKGGEYSTPLSAIFTT
B14: SEQ ID NO 225 (designed binder)
chain: MLPAPKNLVVSRVTEDSARLSWTAPDAAFDSFKIEYFEYVGYGEAIVLTVPGSERSYDLTGLKPGTEYYVAIYGVKGGWYSRPLSAIFTT
B15: SEQ ID NO 262 (designed binder)
chain: MLPAPKNLVVSRVTEDSARLSWTAPDAAFDSFAIEYFEYTGEGEAIVLTVPGSERSYDLTGLKPGTEYYVGIYGVKGGYLSRPLSAIFTT
B16: SEQ ID NO 253 (designed binder)
chain: MLPAPKNLVVSRVTEDSARLSWTAPDAAFDSFTIEYWETIGGGEAIVLTVPGSERSYDLTGLKPGTEYYVGIYGVKGGWWSRPLSAIFTT
B17: SEQ ID NO 231 (designed binder)
chain: MLPAPKNLVVSRVTEDSARLSWTAPDAAFDSFEIPYIETVALGEAIVLTVPGSERSYDLTGLKPGTEYYVEIYGVKGGSYSYPLSAISTT
B18: SEQ ID NO 252 (designed binder)
chain: MLPAPKNLVVSRVTEDSARLSWTAPDAAFDSFDIGYTEYGGYGEAIVLTVPGSERSYDLTGLKPGTEYWVLIQGVKGGGSSVPLSAIFTT
B19: SEQ ID NO 259 (designed binder)
chain: MLPAPKNLVVSRVTEDSARLSWTAPDAAFDSFTIEYFEFVDAGEAIVLTVPGSERSYDLTGLKPGTEYWVEIWGVKGGSWSKPLSAIFTT
B20: SEQ ID NO 255 (designed binder)
chain: MLPAPKNLVVSRVTEDSARLSWTAPDAAFDSFDIEYYELIGRGEAIVLTVPGSERSYDLTGLKPGTEYWVGIYGVKGGWLSRPLSAIFTT
B21: SEQ ID NO 244 (designed binder)
chain: MLPAPKNLVVSRVTEDSARLSWTAPDAAFDSFHIDYSEFHLRGEAIVLTVPGSERSYDLTGLKPGTEYLGIFGVKGGEQSGPLSAIFTT
B22: SEQ ID NO 237 (designed binder)
chain: MLPAPKNLVVSRVTEDSARLSWTAPDAAFDSFTILYGEMGTTGEAIVLTVPGSERSYDLTGLKPGTEYDVFIEGVKGGELSWPLSAIFTT
B23: SEQ ID NO 261 (designed binder)
chain: MLPAPKNLVVSRVTEDSARLSWTAPDAAFDSFTIVYGEWGVPGEAIVLTVPGSERSYDLTGLKPGTEYDVWIEGVKGGDLSWPLSAIVTT
B24: SEQ ID NO 246 (designed binder)
chain: MLPAPKNLVVSRVTEDSARLSWTAPDAAFDSFTIAYNEQNHYGEAIVLTVPGSERSYDLTGLKPGTEYGVWIEGVKGGTLSWPLSAIFTT
B25: SEQ ID NO 257 (designed binder)
chain: MLPAPKNLVVSRVTEDSARLSWTAPDAAFDSFHIVYHEPRPSGEAIVLTVPGSERSYDLTGLKPGTEYEVGIVSVKGGDLSVPLSAIFTT
B26: SEQ ID NO 245 (designed binder)
chain: MLPAPKNLVVSRITEDSARLSWTAPDAAFDSFGIAYNEGDHYGEAIVLTVPGSERSYDLTGLKPGTEYSVWIEGVKGGNLSYPLSAIFTT
B27: SEQ ID NO 235 (designed binder)
chain: MLPAPKNLVVSRVTEDSARLSWTAPDAAFDSFSINYREWWSDGEAIYLPVPGSERSYDLTGLKPGTEYAVYIQGVKGGSRSFPLHAWFTT
B28: SEQ ID NO 223 (designed binder)
chain: MLPAPKNLVVSRVTEDSARLSWTAPDAAFDSFTIWYAEALGDGEAIVLTVPGSERSYDLTGLKPGTEYFVDIPGVKGGTRSSPLSAISTT
B29: SEQ ID NO 248 (designed binder)
chain: MGSLPAPKNLVVSRVTEDSARLSWTAPDAAFDSFAIPYAEPSPTGEAIVLTVPGSERSYDLTGLKPGTEYPVWIQGVKGGSPSAPLSAEFTT
B30: SEQ ID NO 226 (designed binder)
chain: MLPAPKNLVVSRVTEDSARLSWTAPDAAFDSFHIIYEEVLTEGEAIYLRVPGSERSYDLTGLKPGTEYGVTIKGVKGGAYSIPLIATFTT
B31: SEQ ID NO 239 (designed binder)
chain: MLPAPKNLVVSRVTEDSARLSWTAPDAAFDSFAITYYEGRWRGEAIVLTVPGSERSYDLTGLKPGTEYGVPIRGVKGGTGSLPLSAIFTT
B32: SEQ ID NO 260 (designed binder)
chain: MLPAPKNLVVSRVTEDSARLSWTAPDAAFDSFNISYYEYFVHGEAIVLTVPGSERSYDLTGLKPGTEYYVIDGVKGGDPSEPLSAIFTT
B33: SEQ ID NO 247 (designed binder)
chain: MLPAPKNLVVSRVTEDSARLSWTAPDAAFDSFYIEWTYKGEAIVLTVPGSERSYDLTGLKPGTEYFVGIPGVKGGKSSYPLSAIFTT
B34: SEQ ID NO 230 (designed binder)
chain: MLPAPKNLVVSRVTEDSARLSWTAPDAAFDSFQIRYPKRWISGEAIVLTVPGSERSYDLTGLKPGTEYEVVIRGVKGGEYSWPLSAIFTT
B35: SEQ ID NO 241 (designed binder)
chain: MLPAPKNLVVSRVTEDSARLSWTAPDAAFDSFNIYYYEWFVSGEAIVLTVPGSERSYDLTGLKPGTEYFVDIDGVKGGYRSRPLSAIFTT
B36: SEQ ID NO 238 (designed binder)
chain: MLPAPKNLVVSRVTEDSARLSWTAPDAAFDSFKIFYQEFGGEAIVLTVPGSERSYDLTGLKPGTEYWVDIYGVKGGYTSSPLSAIFTT
B37: SEQ ID NO 250 (designed binder)
chain: MLPAPKNLVVSRVTEDSARLSWTAPDAAFDSFFIGYLEPYPPGEAIVLTVPGSERSYDLTGLKPGTEYAVEIAGVKGGLLSSPLSAISTT
B38: SEQ ID NO 251 (designed binder)
chain: MLPAPKNLVVSRVTEDSARLSWTAPDAAFDSFFIGYLEPQPPGEAIVLTVPGSERSYDLTGLKPGTEYNVTIQGVKGGFPSMPLSAIVTT
B39: SEQ ID NO 263 (designed binder)
chain: MLPAPKNLVVSRVTEDSARLSWTAPDAAFDSFFIGYLEPQPPGEAIVLTVPGSERSYDLTGLKPGTEYNVTIQGVKGGFPSMPLSAISTT

This experiment deals with human serum albumin (human) (UniProt P02768). Put plainly: screening ELISA. In general terms: ELISA stands for enzyme-linked immunosorbent assay.
Chain of human serum albumin (human) (P02768 25-609 limits assumed): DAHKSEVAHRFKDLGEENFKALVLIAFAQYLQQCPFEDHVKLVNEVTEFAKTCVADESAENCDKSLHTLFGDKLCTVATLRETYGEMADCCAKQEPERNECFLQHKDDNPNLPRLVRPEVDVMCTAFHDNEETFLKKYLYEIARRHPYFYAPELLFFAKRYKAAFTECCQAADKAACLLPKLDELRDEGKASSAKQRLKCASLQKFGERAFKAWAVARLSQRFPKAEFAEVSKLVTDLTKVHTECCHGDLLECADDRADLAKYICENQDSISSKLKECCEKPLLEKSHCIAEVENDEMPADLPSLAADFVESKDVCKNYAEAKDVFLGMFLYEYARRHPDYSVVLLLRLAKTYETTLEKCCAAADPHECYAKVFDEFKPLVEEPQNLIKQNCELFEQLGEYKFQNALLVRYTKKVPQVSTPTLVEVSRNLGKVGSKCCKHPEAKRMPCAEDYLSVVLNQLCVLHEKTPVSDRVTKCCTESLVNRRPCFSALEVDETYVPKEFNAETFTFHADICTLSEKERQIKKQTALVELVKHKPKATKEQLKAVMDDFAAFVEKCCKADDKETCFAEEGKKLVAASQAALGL
As to B1, the HSA was 2600. Take B2: the HSA amounted to 90000. The value for B3 was 2200; that for B4 was 10600; that for B5 was 11500.

Molecule B6 came in with an HSA of 2550.

B7 yielded an HSA of 4240. In the case of B8 it was 2050; in that of B9, 2300. In the case of B10 it was 1760; in that of B11, 4900; in that of B12, 3700.

Molecule B13 showed an HSA of 16500. Molecule B14 yielded an HSA of 14100. The value for B15 was 2350; that for B16 was 2450; that for B17 was 26500.

The molecule B18 returned an HSA of 2500. In turn, B19 returned an HSA of 2100. In the case of B20, the HSA stood at 4550. For B21, the HSA amounted to 1650. B22 came in with an HSA of 1850.

As for B23, the HSA turned out to be 5550. In the case of B24 it was 1400; in that of B25, 3950; in that of B26, 2900.

Turning to B27, the HSA was 1350. Molecule B28 showed an HSA of 52000. B29 registered an HSA of 15100.

Turning to B30, the HSA was 2850. The value for B31 was 5050; that for B32 was 14400; that for B33 was 53000.

B34 displayed an HSA of 1900.

B35: the HSA worked out at 2200.

Regarding B36, the HSA is 4250. Turning to B37, the HSA worked out at 18800. B38: the HSA was found to be 9650. The value for B39 was 20400.
